According to paper PMC1500868 (Nucleic Acids Research, 2006):

Target: T1, GST-SAP30L (human, UniProt Q9HAJ7 1-183)
T1 sequence (looked up): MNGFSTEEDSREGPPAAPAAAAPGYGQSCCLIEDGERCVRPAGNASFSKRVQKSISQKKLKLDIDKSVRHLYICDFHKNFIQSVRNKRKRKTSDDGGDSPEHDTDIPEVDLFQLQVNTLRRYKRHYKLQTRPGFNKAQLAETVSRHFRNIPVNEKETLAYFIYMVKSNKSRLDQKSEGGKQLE
Assay: pull-down

B1: in vitro translated N-terminally deleted SAP30L (SAP30L 61–183) (domain or fragment, human, UniProt Q9HAJ7 61-183, looked up)
chain: KLDIDKSVRHLYICDFHKNFIQSVRNKRKRKTSDDGGDSPEHDTDIPEVDLFQLQVNTLRRYKRHYKLQTRPGFNKAQLAETVSRHFRNIPVNEKETLAYFIYMVKSNKSRLDQKSEGGKQLE
modifications: 35S-methionine label
fold change of interaction against full-length SAP30L: > 2 fold
